Assay results reported in publication PMC10521239 (Protein Science : A Publication of the Protein Society, 2023).

Molecular target: HPC4 tagged human fIX without the gamma-carboxyglutamic (GLA) domain, wild type (Homo sapiens)
Test: ELISA

Chain of HPC4 tagged human fIX without the gamma-carboxyglutamic (GLA) domain, wild type (Homo sapiens) (P00740 93-461): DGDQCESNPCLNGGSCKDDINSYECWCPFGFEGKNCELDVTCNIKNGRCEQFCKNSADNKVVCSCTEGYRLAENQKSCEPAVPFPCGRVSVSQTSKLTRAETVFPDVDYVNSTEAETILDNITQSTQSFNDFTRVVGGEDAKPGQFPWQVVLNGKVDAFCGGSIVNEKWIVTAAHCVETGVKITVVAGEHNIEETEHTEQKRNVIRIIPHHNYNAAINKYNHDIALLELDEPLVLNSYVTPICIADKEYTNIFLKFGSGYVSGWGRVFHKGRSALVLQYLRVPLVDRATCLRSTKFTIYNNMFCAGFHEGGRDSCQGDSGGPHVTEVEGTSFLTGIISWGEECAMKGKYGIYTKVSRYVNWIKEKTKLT

B1: anti-fIXa NN-8895 full-length mAb (antibody, V domains shown)
VH: EVQLVESGGGLVQPGRSLRLSCAASGFIFDDYAMHWVRQVPGKGLEWVSGISWNSDNIGYVDSVKGRFTISRDNAKNSLYLQMNSLRIEDTALYYCAKAFGSGSYYNGFDYWGQGALVTVSS
VL: DIQMTQSPSTLSASAGDRVTISCRASQSISSWLAWYQQKPGKAPKLLIYKASSLESGVPSRFSGSGSGTEFTLTISSLQPDDFATYYCQEYNSYIRTFGQGTKVEIK
binding result: binds
